From the supplement of paper PMC9732359
± gives the uncertainty stated by the source.

experiment: protein stability index of a GFP-peptide fusion (yeast GPS) (PSI 1-4); higher = more stable; sorted into four equal gates, so the index is relative within each strain; details: doa10∆
In short: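 Tiled 17-residue yeast protein peptides were fused downstream of GFP in a plasmid that also expresses Cherry, and the pooled library was carried in yeast. Mid-log cultures in leucine-free medium were sorted into four equal gates by GFP/Cherry fluorescence ratio, and plasmids from each gate were PCR-amplified and Illumina-sequenced, with reads assigned to strains by barcodes. The protein stability index for each peptide was each gate's read frequency times its gate number, summed.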

Row | Sequence | protein stability index
1 | DKIAVAVAGLTADAEIL [PRE9] | 1.5 ± 0.098

same assay, conditions: pdr5∆

Row | Sequence | protein stability index
2 | ARVLSNYLRQQCNYSSL [PRE5] | 2.96 ± 0.11
3 | ASDLVLIVIDVVEGVTF [SNU114] | 1.58 ± 0.059
4 | ASFQIVEEDHTLGNALR [RPC19] | 2.22 ± 0.23
5 | ASGCNVTPIIDGIVVKN [ARP7] | 2.38 ± 0.063
6 | ASGKEVEKVATAVLSTT [RPN2] | 3.47 ± 0.17
7 | ASISLAIGYPTLPSVGH [RPP0] | 2.73 ± 0.059
8 | ASKYNCDKSVCRKCYAR [RPL40A] | 2.9 ± 0.058
9 | ASQPEPTTNEPAKPALS [YJL041W/NSP1] | 3.14 ± 0.077
10 | ATAALEIILKLCRNPLT [YJL039C/NUP192] | 1.95 ± 0.063
11 | ATANATANATAELNLPT [SNF11] | 3.265 ± 0.029
12 | ATGFGAHMANPLLRKVV [PRE4] | 3.02 ± 0.13
13 | ATLNYIDKNHGFERLTV [SRB7] | 3.28 ± 0.15
14 | ATLSKLKKKYQIILDRF [SIR3] | 1.95 ± 0.073
15 | ATMENIQKGKFTLLDFK [SRP54] | 3.04 ± 0.081
16 | ATSTKVSVEGVNVEKFN [RPL6A] | 3.4 ± 0.11
17 | ATVEECVKLTVRSLLEV [PRE6] | 1.72 ± 0.064
18 | ATVLSRKILKKTFKNPK [RPN5] | 2.67 ± 0.047
19 | AVAEAYNNRSLLDFNTA [RPN6] | 2.98 ± 0.077
20 | AVGAHSDLLKVLKSKKL [RPL4A] | 3.14 ± 0.13
21 | AVHNGDRKHVAALRTVK [RPL9B] | 2.23 ± 0.076
22 | AVHSIIALSRRFLLNGR [YDL116W/NUP84] | 1.56 ± 0.069
23 | AVKYGLNHVVALIENKK [RPL8A] | 2.48 ± 0.12
24 | AVLNVSPVYDVDPRIIN [NUT1] | 2.29 ± 0.064
25 | AVNLLNCPHSDSTQLLE [SSN2] | 3.3 ± 0.092
26 | CCYFIEWKSNHKKKRSN [SRB8] | 2.08 ± 0.054
27 | CDLDFPLRENTNVLDVK [YDL116W/NUP84] | 2.36 ± 0.055

Row | Sequence | protein stability index
28 | CDQTKSVPLMINAKNIA [RRP43] | 2.21 ± 0.078
29 | CFVHRYKDVSDLIRSES [IRR1] | 2.7 ± 0.061
30 | CIVDFTNPKLKSEFDDL [YMR129W/POM152] | 2.1 ± 0.074
31 | CKKNTKKCLKLAYENKI [POP4] | 2.7 ± 0.076
32 | CKLTLDINVELFPVAAQ [RPB8] | 2.24 ± 0.079
33 | CKQVHDKLTSIQDTLRT [MED7] | 2.85 ± 0.048
34 | CNAQPITRSVMRFNIEI [BRR2] | 2.82 ± 0.066
35 | CNSLHIPQDFENEVSDI [ESC2] | 3.03 ± 0.056
36 | CPLSQQFCGIKERNSLK [BRR2] | 3.14 ± 0.1
37 | CPNSTGAELRSVCTEAG [RPT1] | 1.56 ± 0.058
38 | CQEEVSTIEKDMKEYDS [SMC2] | 3.51 ± 0.084
39 | CQYMVACVPLLPPPEDV [RPN1] | 2.57 ± 0.073
40 | CRGELKADIGKPGRMPF [CDC53] | 2.65 ± 0.069
41 | CRKLSFSDKVNALWILV [ITC1] | 1.8 ± 0.044
42 | CYQFAEYLFKPQLISDK [ARP7] | 2.14 ± 0.049
43 | DAEVAQFLEQGLSIHPT [SRP68] | 3 ± 0.063
44 | DAGSNQYYVTQHDKMVD [SWI1] | 2.99 ± 0.046
45 | DAHKAEQEDIIEKTESV [SWI3] | 3.32 ± 0.1
46 | DAISQVINIAKAHPNFP [FAS1] | 2.65 ± 0.095
47 | DAIYRELTKNPNSNVEL [SMC1] | 2.91 ± 0.15
48 | DAKKCIAACTGVPDDKW [FAS1] | 2.35 ± 0.058
49 | DAKSSAYSSRFQTPFRR [RPL5] | 2.83 ± 0.052
50 | DAMIAQRSKKIQPTAKV [DIS3] | 1.99 ± 0.084
51 | DARSSRNFSLAIIDKNT [PRE4] | 2.78 ± 0.083
52 | DATTWRYSMSEQFPFYL [IRR1] | 2.94 ± 0.066
53 | DATYDSALELVGQLNKV [RPN6] | 3.1 ± 0.11

Row | Sequence | protein stability index
54 | DCRMGNFYIQYDPKDGL [AAR2] | 2.39 ± 0.058
55 | DDAMEINGEDPANNHQL [SMX2] | 3.02 ± 0.086
56 | DDDIEKQEQEEKIKSKK [YCG1] | 2.99 ± 0.056
57 | DDDVTPSTKVASSAVMN [YLR335W/NUP2] | 3.19 ± 0.083
58 | DDEGSFAQENSELAVAT [SRB6] | 3.25 ± 0.075
59 | DDESPRFVMPNQLLAAL [RRP6] | 2.02 ± 0.052
60 | DDFEVNVASLVRVQFQF [GRR1] | 1.77 ± 0.089
61 | DDFQNFFDPKPFDQNLD [SWI1] | 1.95 ± 0.055
62 | DDKLAYIRVNHADKDTF [POP8] | 2.58 ± 0.059
63 | DDLKKDHIAIDWEDEEK [DSN1] | 3.06 ± 0.072
64 | DDLQSSVIPEVDREAML [YCG1] | 2.71 ± 0.081
65 | DDPVPTPPAIEHKPVSP [SSN2] | 2.59 ± 0.26
66 | DDVLQTIITDCAFLLTK [YJL039C/NUP192] | 2.08 ± 0.062
67 | DDYVLRIFAIAFTRKQA [RPS1A] | 1.888 ± 0.017
68 | DEDLHEFQIEDAIWSLV [SRB8] | 2.96 ± 0.086
69 | DEEENGSSDEDLKSLNV [SSN2] | 3.54 ± 0.1
70 | DEFPELKEPVEDIIKRT [NUT2] | 3.36 ± 0.07
71 | DEGTALSRLGLKRYCCR [RPB10] | 3.23 ± 0.15
72 | DEHHESFELKEEDISDL [RRP6] | 3.23 ± 0.084
73 | DEIATIQSKRLRNKIAG [RPS17A] | 3.13 ± 0.099
74 | DEISPELLSKYKEQIIQ [SNU114] | 2.57 ± 0.08
75 | DEITEDMFEMSDEEENN [SSN2] | 3.39 ± 0.11
76 | DELEDDTLNETNLKMKR [RRP43] | 3.25 ± 0.082
77 | DELLSQLDLCKLYFQLF [SRP68] | 1.67 ± 0.11
78 | DELVLNFENDNENNSNG [REC8] | 2.62 ± 0.28
79 | DERIEKELNTERQIFLE [CDC53] | 3.09 ± 0.12

Row | Sequence | protein stability index
80 | DETYKGVEEVEGEYELT [RPL5] | 3.43 ± 0.15
81 | DEVYVQNSKFLKVNVTL [YJL039C/NUP192] | 2.78 ± 0.054
82 | DFAQKEINGDDDEDEDD [PRE10] | 3.19 ± 0.071
83 | DFIKFDAGKLVYVTGGR [RPS4A] | 2.1 ± 0.086
84 | DFIQLKQTAAYRTPGSS [SSN2] | 2.98 ± 0.071
85 | DFNMKLAINAKTITSGL [RPB2] | 3.06 ± 0.086
86 | DFNQAKHEEIDTKNLYV [RPS10A] | 2.81 ± 0.12
87 | DFSIRKTCAKSVIQLCG [ECM29] | 1.91 ± 0.13
88 | DGENDKKEATKPAFSFG [YLR335W/NUP2] | 2.21 ± 0.043
89 | DGIGGLTEQIRELREVI [RPT4] | 3.65 ± 0.28
90 | DGILRLYDALEPSDLRS [YGL100W/SEH1] | 3.02 ± 0.051
91 | DHRKRKKSKIQLLDIAE [LIN1] | 2.8 ± 0.23
92 | DHSMILPSGVLSRGDDE [SMC3] | 2.51 ± 0.082
93 | DICLKLNLDSEQTVEYM [RPN3] | 3.28 ± 0.2
94 | DIEDALVLNKSSIDRGF [RET1] | 2.83 ± 0.14
95 | DIGVLEEYARRLAEFKR [SMC4] | 3.38 ± 0.11
96 | DIICEDSTLILEQLAQH [RPB2] | 2.56 ± 0.057
97 | DIKANGSIQKGMPHKFY [RPL21A] | 3.07 ± 0.15
98 | DINPPLVFILAVVGNNM [RRP42] | 1.78 ± 0.058
99 | DINTIKLQLSFVLQMVG [SRP72] | 1.88 ± 0.066
100 | DITFFGEALPNKFHKSI [SIR2] | 2.98 ± 0.1
101 | DIYKSHLDNSKSVFSSA [RPN1] | 2.77 ± 0.041
102 | DKDRDTRRKRRQGRSNR [SNF5] | 3.48 ± 0.16
103 | DKEWVFAALSDSYGQGS [SSN2] | 3.46 ± 0.1
